Reference: US20260226194A1

Biological target: recombinant rabbit PAPPA (rabbit) (UniProt G1SFH7)
Assay: SPR, Biacore 8K+, mAb captured on PrismA chip, PAPPA as analyte, 37 C, mean of n=3

Kd: 170 pM
koff: 0.000559 s⁻¹
kon: 3.28e+06 M⁻¹ s⁻¹
B1: TPP-12744 (antibody, human IgG1, kappa, V domains shown)
VH: QVQLVQSGAEVKKPGASVKVSCKASGYTFTSYAMHWVRQAPGQRLEWMGWMNAGTGATKSSQKFQGRVTITRDTSASTAYMELSSLRSEDTAVYYCARGPSMETPTTFGMDVWGQGTTVTVSS
VL: DIQMTQSPSSVSASVGDRVTITCRASQGISRWLAWYQQKPGKAPKLLIYAASSLQSGVPSRFSGSGSGTDFTLTISSLQPEDFATYYCQQENAYPFTFGGGTKVEIKR
